In article PMC7018516, “Structure of the AAA protein Msp1 reveals mechanism of mislocalized membrane protein extraction” (eLife, 2020):

Key:
Δ30-Msp1 [1] = molecular target: T1, Δ30-Msp1 (Thermochaetoides thermophila, UniProt G0S654); test: cryo-EM structure of complex; conditions: 5 mM ADP•BeFx, 5 mM MgCl2, pH 7.5; ADP without BeFx in subunit M5; nucleotide-binding pocket; substrate peptide in pore
T1 construct: gene CTHT_0034230; cytosolic domain lacking the 30-residue N-terminal membrane anchor; GST tag removed by thrombin; expressed in E. coli BL21(DE3); homohexamer with trapped endogenous E. coli peptide in the pore

Δ30-Msp1 [2] = molecular target: T2, Δ30-Msp1 (Thermochaetoides thermophila, UniProt G0S654, E214Q); test: cryo-EM structure of complex; conditions: 2 mM ATP, 2 mM MgCl2, pH 7.5; subunits M1-M5; nucleotide-binding pocket; Walker B mutant, hydrolysis inactive
T2 construct: gene CTHT_0034230; cytosolic domain lacking the 30-residue N-terminal membrane anchor; GST tag removed by thrombin; expressed in E. coli BL21(DE3); homohexamer with trapped endogenous E. coli peptide in the pore

[3] = molecular target: Δ30-Msp1 (cytosolic domain of Chaetomium thermophilum Msp1 lacking its 30 amino acid N-terminal membrane anchor) (Chaetomium thermophilum); test: cryo-EM structure; Δ30-Msp1 at 50–100 μM with 5 mM MgCl2 and 5 mM ADP•BeFx, 25 mM HEPES pH 7.5, 300 mM NaCl, 1 mM DTT, 2.5% glycerol; subunit with subunit; open and closed conformations
[4] = molecular target: Δ30-Msp1 (cytosolic domain of Chaetomium thermophilum Msp1 lacking its 30 amino acid N-terminal membrane anchor) (Chaetomium thermophilum); test: SEC; gel filtration of the purified protein in Msp1 lysis buffer (25 mM HEPES pH 7.5, 300 mM NaCl, 1 mM DTT, 2 mM MgCl2); self-association
[5] = molecular target: Δ30-Msp1^E214Q (Walker B mutant of the cytosolic domain of Chaetomium thermophilum Msp1) (Chaetomium thermophilum); test: as above
[6] = molecular target: Δ30-Msp1^E214Q (Walker B mutant of the cytosolic domain of Chaetomium thermophilum Msp1) (Chaetomium thermophilum); test: cryo-EM structure; Δ30-Msp1^E214Q at 50–100 μM with 2 mM ATP and 2 mM MgCl2, 25 mM HEPES pH 7.5, 300 mM NaCl, 1 mM DTT, 2.5% glycerol; subunit with subunit; hexamer and larger oligomer classes
[7] = molecular target: Δ30-Msp1^E214Q (Walker B mutant of the cytosolic domain of Chaetomium thermophilum Msp1) (Chaetomium thermophilum); test: as above; remark: listed apart in the source

T1 sequence (G0S654 entry or part of it, stated change not applied): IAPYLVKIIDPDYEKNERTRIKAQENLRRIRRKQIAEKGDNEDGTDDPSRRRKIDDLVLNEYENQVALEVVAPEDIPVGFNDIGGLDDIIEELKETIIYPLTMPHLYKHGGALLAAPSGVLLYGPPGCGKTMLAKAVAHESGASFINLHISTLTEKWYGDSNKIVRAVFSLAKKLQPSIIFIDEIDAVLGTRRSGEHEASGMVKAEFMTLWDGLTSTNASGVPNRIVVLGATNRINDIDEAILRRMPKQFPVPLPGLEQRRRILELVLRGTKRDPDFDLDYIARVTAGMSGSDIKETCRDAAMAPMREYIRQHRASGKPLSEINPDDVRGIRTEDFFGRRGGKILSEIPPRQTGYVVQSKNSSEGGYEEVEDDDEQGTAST
T2 sequence (G0S654 entry or part of it E214Q): as the sequence (G0S654 entry or part of it, stated change not applied) above, with E184Q counted along it

Compound: Nc1ncnc2c1ncn2[C@@H]1O[C@H](COP(=O)(O)OP(=O)(O)O)[C@@H](O)[C@H]1O [ADP]
- cryo-EM structure of complex (Δ30-Msp1 [1]): M1 -M4 were bound to ADP•BeFx (mimicking the ATP state), M5 was bound to ADP

Compound: Nc1ncnc2c1ncn2[C@@H]1O[C@H](COP(=O)(O)OP(=O)(O)OP(=O)(O)O)[C@@H](O)[C@H]1O [ATP]
- cryo-EM structure of complex (Δ30-Msp1 [2]): In Δ30-Msp1^E214Q, M1-M5 display clear density for ATP

Compound: Δ30-Msp1 (cytosolic domain of Chaetomium thermophilum Msp1 lacking its 30 amino acid N-terminal membrane anchor) (enzyme)
- stoichiometry N [3]: 6
- stoichiometry N [4]: 6

Compound: Δ30-Msp1^E214Q (Walker B mutant of the cytosolic domain of Chaetomium thermophilum Msp1) (enzyme)
- stoichiometry N [5]: > 6
- stoichiometry N [6]: 6
- stoichiometry N [7]: 7
